Molecular target: CD117 (KIT, c-Kit) (UniProt P10721 P10721:26-976)
Assay: flow; HEL cells, room temperature 30 min; no binding to CD117-negative CA46, U937, MDA-MB-468, LNCaP cells
Details: tags: endogenous on HEL AML cell line (ATCC) or primary AML marrow cells; label: 5'-Cy3; G4

Chain of CD117 (KIT, c-Kit) (P10721 26-976, one chain of several): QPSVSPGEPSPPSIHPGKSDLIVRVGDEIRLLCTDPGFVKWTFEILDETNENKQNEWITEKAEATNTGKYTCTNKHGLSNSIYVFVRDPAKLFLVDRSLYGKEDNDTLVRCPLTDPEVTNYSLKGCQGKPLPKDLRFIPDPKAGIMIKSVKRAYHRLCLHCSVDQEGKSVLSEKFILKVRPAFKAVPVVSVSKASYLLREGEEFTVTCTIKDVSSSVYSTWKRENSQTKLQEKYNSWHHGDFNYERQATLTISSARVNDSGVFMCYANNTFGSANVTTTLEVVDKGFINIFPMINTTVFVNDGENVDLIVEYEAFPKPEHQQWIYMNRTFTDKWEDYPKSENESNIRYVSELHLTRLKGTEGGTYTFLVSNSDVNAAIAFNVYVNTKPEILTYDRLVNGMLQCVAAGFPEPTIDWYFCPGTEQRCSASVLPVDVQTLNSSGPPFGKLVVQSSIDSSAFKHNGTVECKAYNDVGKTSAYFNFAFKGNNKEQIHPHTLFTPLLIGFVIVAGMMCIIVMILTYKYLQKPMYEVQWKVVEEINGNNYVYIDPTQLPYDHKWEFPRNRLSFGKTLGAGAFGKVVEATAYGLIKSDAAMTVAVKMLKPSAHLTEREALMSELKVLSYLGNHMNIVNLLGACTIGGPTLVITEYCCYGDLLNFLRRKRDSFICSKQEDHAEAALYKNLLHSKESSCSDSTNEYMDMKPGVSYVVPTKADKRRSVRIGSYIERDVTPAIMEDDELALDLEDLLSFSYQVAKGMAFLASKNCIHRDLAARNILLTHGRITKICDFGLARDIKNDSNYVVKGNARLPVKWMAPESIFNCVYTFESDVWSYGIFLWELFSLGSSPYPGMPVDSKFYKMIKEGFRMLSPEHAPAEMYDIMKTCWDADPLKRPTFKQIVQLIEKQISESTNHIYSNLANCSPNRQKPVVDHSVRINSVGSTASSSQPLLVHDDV

B1: CD117 aptamer #1F (full length) (ssDNA)
DNA: GAGGCATACCAGCTTATTCAAGGGGCCGGGGCAAGGGGGGGGTACCGTGGTAGGACATAGTAAGTGCAATCTGCGAA
**Q.** B1 was tested. Which Kd did it give?
**A.** 6.3 nM

— patent US20180073027, “CD117 Ligand-Drug Conjugates For Targeted Cancer Therapy” (THE METHODIST HOSPITAL SYSTEM, published 2018)
